One test concerns the target T1, hu-IL-2Rβ subunit (human, UniProt P14784 27-240, limits assumed).
T1 construct: also called human interleukin-2 receptor subunit β; CD122
T1 sequence (looked up): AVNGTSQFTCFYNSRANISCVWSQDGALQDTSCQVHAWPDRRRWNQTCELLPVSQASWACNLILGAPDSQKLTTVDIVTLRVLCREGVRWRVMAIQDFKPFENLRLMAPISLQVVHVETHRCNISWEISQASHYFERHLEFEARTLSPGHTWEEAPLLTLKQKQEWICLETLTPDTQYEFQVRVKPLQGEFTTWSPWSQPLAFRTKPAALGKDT
The test is described as follows: phage ELISA competition assay.

Test [1] addresses T2, hu-IL-2Rγc subunit (human), P31785.
T2 chain: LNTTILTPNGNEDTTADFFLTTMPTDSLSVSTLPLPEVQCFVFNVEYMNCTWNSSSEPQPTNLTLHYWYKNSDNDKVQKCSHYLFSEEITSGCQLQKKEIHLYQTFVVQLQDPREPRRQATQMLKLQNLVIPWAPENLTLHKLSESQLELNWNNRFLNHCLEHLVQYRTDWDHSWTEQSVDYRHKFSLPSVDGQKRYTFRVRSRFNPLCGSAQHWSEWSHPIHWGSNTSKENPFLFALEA
Briefly: phage ELISA competition assay.

The target is the same in test [2].

Like-named read-outs stand apart in the source and are kept apart here.

As for RVTWYPCWMAQLGELCDLEESV [SEQ ID NO 163], the IC50 with hu-IL-2Rβ subunit was below 100 µM.
Still for that read-out and setting: the value for SGHCYPCWLAGLGELCDLNCG [SEQ ID NO 172] was below 100 µM; that for GPRFYPCWIAQLGELCDLEDMG [SEQ ID NO 162] was below 100 µM.
With DWRRSVVECQDWYGVELCWQ (modifications not checked) [SEQ ID NO 656], the figures for the IC50 in test [1] and in test [2] were below 10 µM and below 100 µM, respectively.
Turning to WYPCWRAQLGELCDLDPPIAVE [SEQ ID NO 167], the IC50 in the test with hu-IL-2Rβ subunit was below 100 µM.
Take WYPCWMAQLGELCDLGPTESNL [SEQ ID NO 157]: in the test with hu-IL-2Rβ subunit, the IC50 was below 100 µM.
For TLGRTVVECQDWGGVELCWQ (modifications not checked) [SEQ ID NO 658], the IC50 in test [1] is below 10 µM; in test [2] it was below 100 µM.
With GYGVLCQEWQGVELCWPVQREAGV (modifications not checked) [SEQ ID NO 682], the IC50 in test [1] is below 10 µM; in test [2] it was below 100 µM.
In turn, WYPCWMAQLGELCDLDDHWPAM [SEQ ID NO 166] had an IC50 with hu-IL-2Rβ subunit below 100 µM.
GNDDSYIVCEEWKGVELCWI (modifications not checked) [SEQ ID NO 669]: the IC50 is below 10 µM in test [1] and below 100 µM in test [2].
Consider GLEIACEDWYGVELCWLRRA (modifications not checked) [SEQ ID NO 681], for which the IC50 was below 10 µM in test [1] and below 100 µM in test [2].
WYPCWIARLGELCDLETSGGFP [SEQ ID NO 171]: the IC50 in the test with hu-IL-2Rβ subunit is below 100 µM.
In the case of LNRSVWIECEEYEGVELCWL (modifications not checked) [SEQ ID NO 671], the IC50 was below 10 µM in test [1] and below 100 µM in test [2].
As for WYPCWMANLGELCDLEAERSPV [SEQ ID NO 168], the 50% inhibitory concentration (IC50) with hu-IL-2Rβ subunit is below 100 µM.
On the same count and under the same terms, the same measure for SLPCWMAQLGDLCELH [SEQ ID NO 181]: below 100 µM.
For IVCEEWRGVELCWL (modifications not checked) [SEQ ID NO 647], the IC50 in test [1] was below 10 µM; in test [2] it was below 100 µM.
On to DFERSYVVCQDWDGVELCWI (modifications not checked) [SEQ ID NO 648], for which the IC50 in test [1] is below 10 µM; in test [2] it was below 100 µM.
The like results for VSCQEWDGVELCWVDGDLAA (modifications not checked) [SEQ ID NO 679] were, in that order, below 10 µM and below 100 µM.
Molecule KSGWYPCWMAKLGELCDLEAQP [SEQ ID NO 161] registered an IC50 with hu-IL-2Rβ subunit below 100 µM.
The same measure, in the same setting: the value for SVVVNNWLPCWMAQLGELCDLD [SEQ ID NO 86] was below 100 µM.
The same measure, in the same setting: the value for WYPCWMANLGELCDLEYPSWAQ [SEQ ID NO 158] was below 100 µM; that for WWPCWMAQLGDLCDLEETSGGT [SEQ ID NO 156] was below 100 µM.
Turning to KITVECQDWDGVELCWPTWI (modifications not checked) [SEQ ID NO 677], the IC50 was below 10 µM in test [1] and below 100 µM in test [2].
As for WYPCHMAKLRELCDLD [SEQ ID NO 180], in the test with hu-IL-2Rβ subunit, the IC50 was below 100 µM.
Same read-out and setting: the value for YLPCWMAHLGELCDLDSPLKAR [SEQ ID NO 165] was below 100 µM; that for WLPCWMAQLGDLCDLEQYVPLP [SEQ ID NO 164] was below 100 µM.
For the molecule INCQTWNGVELCWVDEGLYQ (modifications not checked) [SEQ ID NO 685], the IC50 in test [1] is below 10 µM; in test [2], below 100 µM.
The corresponding values for ANQNTVVECQDWHGVELCWQ (modifications not checked) [SEQ ID NO 665] are below 10 µM and below 100 µM.
For the molecule WYPCWMAQLGELCDLDAGARHL [SEQ ID NO 160], the IC50 with hu-IL-2Rβ subunit is below 100 µM.
As to IECEEWRGVELCWQ (modifications not checked) [SEQ ID NO 638], the values for the IC50 in test [1] and in test [2] were below 10 µM and below 100 µM, respectively.
WFPCWMAQLGEVCDLD [SEQ ID NO 179] returned an IC50 in the test with hu-IL-2Rβ subunit below 100 µM.
As to SAGRQEVVCQDWNGVELCWI (modifications not checked) [SEQ ID NO 654], the IC50 in test [1] is below 10 µM; in test [2], below 100 µM.
For ERPRSFIECQEWEGVELCWL (modifications not checked) [SEQ ID NO 663], the IC50 in test [1] was below 10 µM; in test [2], below 100 µM.
On to RGMCYPCWFARLGELCDLECDQ [SEQ ID NO 159], for which, in the test with hu-IL-2Rβ subunit, the IC50 is below 100 µM.
With VVCQDWEGVELCWQ (modifications not checked) [SEQ ID NO 652], the IC50 in test [1] was below 10 µM; in test [2], below 100 µM.
TWNMSELECQDWNGVEICWH (modifications not checked) [SEQ ID NO 668]: the values for the IC50 in test [1] and in test [2] were below 10 µM and below 100 µM, respectively.
The like results for SAPERWVECEDWQGVELCWV (modifications not checked) [SEQ ID NO 650] were, in that order, below 10 µM and below 100 µM.
The like results for IWGRTVVECQDWEGVELCWQ (modifications not checked) [SEQ ID NO 640] were, in that order, below 10 µM and below 100 µM.
The corresponding values for IMCQEWDGVELCWLERDKAN (modifications not checked) [SEQ ID NO 680] are below 10 µM and below 100 µM.
For RDQYYPCWMAQLGELCDLDEVF [SEQ ID NO 169], in the test with hu-IL-2Rβ subunit, the IC50 was below 100 µM.
For KSQVECQDWEGVELCWVVSE (modifications not checked) [SEQ ID NO 676], the figures for the IC50 in test [1] and in test [2] were below 10 µM and below 100 µM, respectively.
The corresponding values for PYGVVCQDWAGVELCWVENR (modifications not checked) [SEQ ID NO 683] are below 10 µM and below 100 µM.
For GQGREVVVCHDWYGVELCWQ (modifications not checked) [SEQ ID NO 655], the figures for the IC50 in test [1] and in test [2] were below 10 µM and below 100 µM, respectively.
In the case of PEGREVVVCRDWYGVELCWQ (modifications not checked) [SEQ ID NO 639], the figures for the IC50 in test [1] and in test [2] were below 10 µM and below 100 µM, respectively.
The corresponding values for DVVCQNWEGVDLCWH (modifications not checked) [SEQ ID NO 653] are below 10 µM and below 100 µM.
RPQIECQEWQGVELCWTREE (modifications not checked) [SEQ ID NO 678]: the IC50 in test [1] was below 10 µM; in test [2], below 100 µM.
On to GDRPKEVVCEDWKGVELCWI (modifications not checked) [SEQ ID NO 662], for which the IC50 is below 10 µM in test [1] and below 100 µM in test [2].
For TANQTVVECQVWGGVELCWQ (modifications not checked) [SEQ ID NO 644], the IC50 is below 10 µM in test [1] and below 100 µM in test [2].
For IVCEDWRGVELCWI (modifications not checked) [SEQ ID NO 660], the IC50 was below 10 µM in test [1] and below 100 µM in test [2].
With DVVCQNWDGVDLCWH (modifications not checked) [SEQ ID NO 657], the IC50 in test [1] is below 10 µM; in test [2] it was below 100 µM.
Regarding VECQEWGGVELCWC (modifications not checked) [SEQ ID NO 645], the IC50 in test [1] is below 10 µM; in test [2], below 100 µM.
In the test with hu-IL-2Rβ subunit, VRAWYPCWIARLGELCDLEVD [SEQ ID NO 178] yielded a half-inhibitory concentration (IC50) below 100 µM.
